{
  "source": "patent US20160194407A1",
  "about": "(AstraZeneca / MedImmune, published 2016)",
  "key": {"CD73 chimera KO_Nterm": {"biological_target": "T1, CD73 chimera KO_Nterm (chicken (Gallus gallus); human)", "T1 construct": "Human limits converted from mature numbering (+26); also called N-terminal domain-swapped CD73", "T1 chain": "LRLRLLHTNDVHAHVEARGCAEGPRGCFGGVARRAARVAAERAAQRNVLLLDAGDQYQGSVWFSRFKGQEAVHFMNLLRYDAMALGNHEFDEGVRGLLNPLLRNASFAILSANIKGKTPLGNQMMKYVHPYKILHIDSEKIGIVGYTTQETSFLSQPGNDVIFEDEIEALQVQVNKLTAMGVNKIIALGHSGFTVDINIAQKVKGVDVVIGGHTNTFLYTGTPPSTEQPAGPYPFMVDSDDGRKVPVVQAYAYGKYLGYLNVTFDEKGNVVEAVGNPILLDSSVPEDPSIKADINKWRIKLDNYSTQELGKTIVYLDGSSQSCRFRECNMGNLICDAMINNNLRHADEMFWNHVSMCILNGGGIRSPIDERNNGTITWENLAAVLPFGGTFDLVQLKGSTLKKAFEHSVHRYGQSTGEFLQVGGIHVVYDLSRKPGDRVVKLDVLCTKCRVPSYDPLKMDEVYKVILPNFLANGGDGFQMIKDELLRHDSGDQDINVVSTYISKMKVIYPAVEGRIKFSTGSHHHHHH", "test": "SPR ProteOn, CD73 variant on HTG chip"}, "human CD73 K180A + N185G": {"biological_target": "T2, human CD73 K180A + N185G (human, UniProt P21589 27-553, K180A; N185G)", "T2 sequence": "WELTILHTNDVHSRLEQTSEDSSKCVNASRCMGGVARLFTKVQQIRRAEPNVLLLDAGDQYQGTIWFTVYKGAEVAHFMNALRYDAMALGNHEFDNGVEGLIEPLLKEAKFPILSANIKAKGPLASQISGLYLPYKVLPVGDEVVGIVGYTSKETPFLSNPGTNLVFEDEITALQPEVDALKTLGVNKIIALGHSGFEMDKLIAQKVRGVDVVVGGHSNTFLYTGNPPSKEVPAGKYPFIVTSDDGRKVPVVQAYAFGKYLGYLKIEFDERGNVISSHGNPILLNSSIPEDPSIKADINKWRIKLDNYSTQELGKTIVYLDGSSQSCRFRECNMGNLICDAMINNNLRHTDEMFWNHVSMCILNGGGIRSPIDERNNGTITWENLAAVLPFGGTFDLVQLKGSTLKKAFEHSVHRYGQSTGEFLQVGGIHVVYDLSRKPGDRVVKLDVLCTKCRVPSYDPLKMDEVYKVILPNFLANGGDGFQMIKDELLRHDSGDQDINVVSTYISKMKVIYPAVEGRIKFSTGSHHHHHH", "test": "SPR ProteOn, CD73 variant on HTG chip"}, "human CD73 V144K + N185G": {"biological_target": "T3, human CD73 V144K + N185G (human, UniProt P21589 27-553)", "T3 chain": "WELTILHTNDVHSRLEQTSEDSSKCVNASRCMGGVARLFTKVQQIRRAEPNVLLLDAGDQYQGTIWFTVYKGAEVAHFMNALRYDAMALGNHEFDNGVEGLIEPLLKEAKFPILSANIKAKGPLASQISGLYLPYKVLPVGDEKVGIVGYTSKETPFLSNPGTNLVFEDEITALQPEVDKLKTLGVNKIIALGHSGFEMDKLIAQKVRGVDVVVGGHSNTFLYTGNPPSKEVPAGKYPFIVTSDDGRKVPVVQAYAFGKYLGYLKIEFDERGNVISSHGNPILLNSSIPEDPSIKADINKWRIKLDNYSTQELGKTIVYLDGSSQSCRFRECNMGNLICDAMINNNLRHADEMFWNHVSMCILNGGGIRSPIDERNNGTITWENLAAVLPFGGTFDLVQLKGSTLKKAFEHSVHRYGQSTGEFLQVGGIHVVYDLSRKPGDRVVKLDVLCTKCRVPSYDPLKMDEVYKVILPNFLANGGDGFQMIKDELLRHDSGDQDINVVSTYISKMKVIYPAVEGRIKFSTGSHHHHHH", "test": "SPR ProteOn, CD73 variant on HTG chip"}, "cynomolgus CD73 on cells": {"biological_target": "T4, cynomolgus CD73 on cells (cynomolgus)", "T4 construct": "whole, on cells; also called native CD73 on MK-1 cells (cynomolgus)", "test": "flow cytometry on MK-1 cells, one-site fit of median fluorescence", "experimental": "All flow cytometry experiments were run at 4 C and reagents were prepared in PBS/1% FBS buffer. 10,000 cells were incubated with test antibody in 50 uL volume for 4 hours. Cells were washed twice and incubated in 50 uL goat anti-human IgGFc-AlexaFluor647 conjugate for 15 minutes. Cells were washed, resuspended in buffer supplemented with Dapi, and analyzed on a flow cytometer. Dead cells, identified by high Dapi staining, were excluded from the analysis. For the determination of KD values, a plot of the median fluorescence intensity as a function of test antibody concentration was fitted nonlinearly using a one site binding isotherm model."}, "[1]": {"biological_target": "T5, cynomolgus CD73 extracellular domain (ECD) (cynomolgus)", "T5 construct": "extracellular domain; also called Cynomolgus CD73 ECD; cyno CD73 (SPR Proteon)", "test": "SPR (Proteon), IgG1-TM"}, "murine CD73 on cells": {"biological_target": "T6, murine CD73 on cells (murine, UniProt Q61503 29-551)", "T6 sequence (looked up)": "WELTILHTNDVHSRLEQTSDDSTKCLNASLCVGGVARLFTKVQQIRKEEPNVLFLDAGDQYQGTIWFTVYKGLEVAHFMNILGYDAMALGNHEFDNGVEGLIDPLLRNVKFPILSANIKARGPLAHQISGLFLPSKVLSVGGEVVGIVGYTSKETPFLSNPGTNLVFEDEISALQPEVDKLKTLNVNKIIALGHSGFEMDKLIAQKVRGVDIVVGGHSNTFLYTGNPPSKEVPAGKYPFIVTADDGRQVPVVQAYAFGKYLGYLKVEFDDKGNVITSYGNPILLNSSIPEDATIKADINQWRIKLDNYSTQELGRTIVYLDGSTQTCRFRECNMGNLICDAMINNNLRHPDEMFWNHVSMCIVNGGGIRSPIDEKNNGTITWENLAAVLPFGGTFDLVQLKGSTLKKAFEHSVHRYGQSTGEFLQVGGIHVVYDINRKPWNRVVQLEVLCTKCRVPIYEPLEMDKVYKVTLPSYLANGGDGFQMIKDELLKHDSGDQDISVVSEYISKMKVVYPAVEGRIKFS", "test": "cell-based or functional assay"}, "[2]": {"biological_target": "T5, cynomolgus CD73 extracellular domain …", "test": "SPR ProteOn, antibody captured by anti-human Fc, CD73 ECD in mobile phase, 1:1 model"}},
  "data": [
    {"binder": "MEDI9447 (antibody, V domains shown, also called clone 10.3 antibody; 73combo3) VH: EVQLLESGGGLVQPGGSLRLSCAASGFTFSSYAYSWVRQAPGKGLEWVSAISGSGGRTYYADSVKGRFTISRDNSKNTLYLQMNSLRAEDTAVYYCARLGYGRVDEWGRGTLVTVSS VL: QSVLTQPPSASGTPGQRVTISCSGSLSNIGRNPVNWYQQLPGTAPKLLIYLDNLRLSGVPDRFSGSKSGTSASLAISGLQSEDEADYYCATWDDSHPGWTFGGGTKLTVL", "values": [
      {"measurement": "binding result", "setting": "CD73 chimera KO_Nterm", "value": "no binding (tested: 5 nM to 0.3 nM)"},
      {"measurement": "binding result", "setting": "human CD73 K180A + N185G", "value": "no binding"},
      {"measurement": "binding result", "setting": "human CD73 V144K + N185G", "value": "no binding"},
      {"measurement": "Kd", "setting": "cynomolgus CD73 on cells", "value": 84, "unit": "pM"},
      {"measurement": "Kd", "setting": "[1]", "value": 7, "unit": "pM"},
      {"measurement": "FabZAP internalization, max toxicity, 4T1", "setting": "murine CD73 on cells", "value": 97, "unit": "%"},
      {"measurement": "Kd", "setting": "[2]", "value": 6.5, "unit": "pM"},
      {"measurement": "koff", "setting": "[2]", "value": "1.76e-05", "unit": "s⁻¹"},
      {"measurement": "kon", "setting": "[2]", "value": "2.71e+06", "unit": "M⁻¹ s⁻¹"}
    ]}
  ]
}
